Bridge positions count the residues as written; N and C are the ends. Ends that are not written are not given here.

Sequences and labels used below:
B1: CRGDGWC phage (peptide)
peptide: CRGDGWC
modifications: disulfide 1-7 (inferred)
notes: on fuse 5 phage, fused to pIII; also called phage expressing the peptide A*CRGDGWC*G; not shown: The pIII coat protein of the fuse 5 phage vector and its junction residues
B2: CRGDGFC phage (peptide)
peptide: CRGDGFC
modifications: disulfide 1-7 (inferred)
notes: on fuse 5 phage, fused to pIII; not shown: The pIII coat protein of the fuse 5 phage vector and its junction residues

The target of one assay is T1, α5β1 integrin isolated from human placental extract (human, UniProt P08648 42-1049; P05556 21-798).
T1 construct: coated on plastic wells or captured by anti-α5 antibody; also called fibronectin receptor
T1 sequence (P08648 42-1049, chain 1 of 2): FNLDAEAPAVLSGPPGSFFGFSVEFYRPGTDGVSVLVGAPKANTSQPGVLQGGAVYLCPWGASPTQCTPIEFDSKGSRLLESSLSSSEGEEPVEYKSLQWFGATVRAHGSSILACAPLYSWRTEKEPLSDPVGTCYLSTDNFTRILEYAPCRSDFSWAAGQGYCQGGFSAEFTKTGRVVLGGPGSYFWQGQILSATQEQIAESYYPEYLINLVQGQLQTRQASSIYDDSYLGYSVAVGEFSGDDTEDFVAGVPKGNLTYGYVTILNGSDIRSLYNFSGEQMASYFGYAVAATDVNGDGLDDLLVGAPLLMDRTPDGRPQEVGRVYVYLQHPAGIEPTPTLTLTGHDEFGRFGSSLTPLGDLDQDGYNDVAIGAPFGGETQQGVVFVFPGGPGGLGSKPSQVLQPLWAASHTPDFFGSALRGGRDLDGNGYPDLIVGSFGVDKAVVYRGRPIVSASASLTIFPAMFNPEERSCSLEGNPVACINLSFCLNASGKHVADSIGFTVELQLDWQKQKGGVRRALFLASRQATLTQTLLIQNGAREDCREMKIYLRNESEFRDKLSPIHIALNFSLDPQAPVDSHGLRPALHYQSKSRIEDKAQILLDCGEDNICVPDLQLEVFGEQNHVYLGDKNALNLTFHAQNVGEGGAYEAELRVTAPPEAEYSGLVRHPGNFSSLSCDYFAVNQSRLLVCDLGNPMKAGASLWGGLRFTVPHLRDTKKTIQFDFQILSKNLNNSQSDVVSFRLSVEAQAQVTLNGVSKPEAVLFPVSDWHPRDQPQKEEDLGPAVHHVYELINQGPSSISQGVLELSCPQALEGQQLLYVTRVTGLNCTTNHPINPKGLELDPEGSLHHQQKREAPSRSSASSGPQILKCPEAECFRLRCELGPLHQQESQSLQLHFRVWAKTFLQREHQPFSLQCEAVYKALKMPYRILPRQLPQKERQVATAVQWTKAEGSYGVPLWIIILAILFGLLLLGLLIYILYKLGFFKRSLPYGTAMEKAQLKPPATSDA
T1 sequence (P05556 21-798, chain 2 of 2): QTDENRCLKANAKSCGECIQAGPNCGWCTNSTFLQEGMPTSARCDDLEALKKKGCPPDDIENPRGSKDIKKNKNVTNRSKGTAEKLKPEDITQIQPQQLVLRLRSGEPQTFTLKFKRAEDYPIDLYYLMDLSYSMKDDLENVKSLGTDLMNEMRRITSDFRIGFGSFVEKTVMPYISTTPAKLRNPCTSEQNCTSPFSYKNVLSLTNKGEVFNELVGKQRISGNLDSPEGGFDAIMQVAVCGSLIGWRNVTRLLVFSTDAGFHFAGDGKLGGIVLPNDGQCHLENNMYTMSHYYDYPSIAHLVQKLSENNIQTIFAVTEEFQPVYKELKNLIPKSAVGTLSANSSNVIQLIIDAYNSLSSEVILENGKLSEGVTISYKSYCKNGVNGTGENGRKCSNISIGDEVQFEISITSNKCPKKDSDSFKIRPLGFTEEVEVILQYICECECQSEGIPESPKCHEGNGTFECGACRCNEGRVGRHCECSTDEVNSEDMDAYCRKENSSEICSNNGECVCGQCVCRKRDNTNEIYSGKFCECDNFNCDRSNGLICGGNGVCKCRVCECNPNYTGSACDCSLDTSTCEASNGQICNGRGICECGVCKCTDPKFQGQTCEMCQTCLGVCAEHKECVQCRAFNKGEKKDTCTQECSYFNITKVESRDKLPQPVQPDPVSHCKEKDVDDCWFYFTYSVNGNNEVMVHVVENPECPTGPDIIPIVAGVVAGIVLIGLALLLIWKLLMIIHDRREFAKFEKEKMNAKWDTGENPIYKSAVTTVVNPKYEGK
Description: phage panning on coated integrin.
As for WCRPETGWRC (on fuse 5 phage, fused to pIII) [WCRPETGWRC phage], the binding result is on record as “binds”.
Same read-out and setting: with CRSETYWKC (on fuse 5 phage, fused to pIII) [CRSETYWKC phage] the entry was “binds”.
Regarding WCRGETAWAC (on fuse 5 phage, fused to pIII) [WCRGETAWAC phage], the binding result was “binds”.
Take WCREETGWWC (on fuse 5 phage, fused to pIII) [WCREETGWWC phage]: the binding result is listed as “binds”.
Still for that read-out and setting: then CRRETAWAC (on fuse 5 phage, fused to pIII) [CRRETAWAC phage], with “binds”; and RCREETAWAC (on fuse 5 phage, fused to pIII) [RCREETAWAC phage], with “binds”.
Still for that read-out and setting: then RCREETLWAC (on fuse 5 phage, fused to pIII) [RCREETLWAC phage], with “binds”; and RCRSETAWAC (on fuse 5 phage, fused to pIII) [RCRSETAWAC phage], with “binds”; and GCREETAWQC (on fuse 5 phage, fused to pIII) [GCREETAWQC phage], with “binds”.
The same measure, in the same setting: with SCRRETQWHC (on fuse 5 phage, fused to pIII) [SCRRETQWHC phage] the entry was “binds”; with SCRDETLWWC (on fuse 5 phage, fused to pIII) [SCRDETLWWC phage], “binds”.
As for RCRAETGWAC (on fuse 5 phage, fused to pIII) [RCRAETGWAC phage], the binding result is “binds”.
Still for that read-out and setting: with PCREETAWRC (on fuse 5 phage, fused to pIII) [PCREETAWRC phage] the entry was “binds”.
Regarding ECRRETAWAC (on fuse 5 phage, fused to pIII) [ECRRETAWAC phage], the binding result was “binds”.
Still for that read-out and setting: then ECRRETAWSC (on fuse 5 phage, fused to pIII) [ECRRETAWSC phage], with “binds”; and GCRKETAWAC (on fuse 5 phage, fused to pIII) [GCRKETAWAC phage], with “binds”; and ACRRETAWAC (on fuse 5 phage, fused to pIII) [ACRRETAWAC phage], with “binds”.
The same measure, in the same setting: then HCRRETAWAC (on fuse 5 phage, fused to pIII) [HCRRETAWAC phage], with “binds”.
As to GCRRETAWAC (on fuse 5 phage, fused to pIII) [GCRRETAWAC phage], the binding result was “binds”.
The same measure, in the same setting: then GCRRETEWAC (on fuse 5 phage, fused to pIII) [GCRRETEWAC phage], with “binds”.
Still for that read-out and setting: with ECRRETAWWC (on fuse 5 phage, fused to pIII) [ECRRETAWWC phage] the entry was “binds”.
Still for that read-out and setting: with VCRKETAWAC (on fuse 5 phage, fused to pIII) [VCRKETAWAC phage] the entry was “binds”.
Consider ECRRETAWGC (on fuse 5 phage, fused to pIII) [ECRRETAWGC phage], for which the binding result was “binds”.
Consider SCREETGWGC (on fuse 5 phage, fused to pIII) [SCREETGWGC phage], for which the binding result is listed as “binds”.

Another assay addresses T1, α5β1 integrin isolated from human …. The experiment in a line: phage panning on coated integrin. This is another data set of the same source. As for the experimental part: In the first panning, the integrins were coated at 5 µg per well, and the library pool was incubated for 4 hours at 25° C. in TBS buffer containing 1% bovine serum albumin and 1 mM MnCl_2 (α_5β_1, α_vβ_3) 1 mM MgCl_2 ($\alphaIIb\beta_3$) or 1 mM CaCl_2 (α_vβ_5).
Turning to CRGDGYCVFF (on fuse 5 phage, fused to pIII) [CRGDGYCVFF phage], the binding result is listed as “binds”.
Take CLRGDGLALC (on fuse 5 phage, fused to pIII) [CLRGDGLALC phage]: the binding result is “binds”.
For the molecule CRGDGLMCGL (on fuse 5 phage, fused to pIII) [CRGDGLMCGL phage], the binding result is “binds”.
CRGDCLPTPR (on fuse 5 phage, fused to pIII) [CRGDCLPTPR phage]: the binding result is listed as “binds”.
The same measure, in the same setting: with CMWLSVNYSC (on fuse 5 phage, fused to pIII) [CMWLSVNYSC phage] the entry was “binds”.
The same measure, in the same setting: with CTNVNGRSAC (on fuse 5 phage, fused to pIII) [CTNVNGRSAC phage] the entry was “binds”.
Same read-out and setting: then CDWRGDNQFC (on fuse 5 phage, fused to pIII) [CDWRGDNQFC phage], with “binds”; and CGADSEEGPC (on fuse 5 phage, fused to pIII) [CGADSEEGPC phage], with “binds”; and B1, with “binds”.
For B2, the binding result is listed as “binds”.
On to CPVRRGDGWC (on fuse 5 phage, fused to pIII) [CPVRRGDGWC phage], for which the binding result is “binds”.
Same read-out and setting: then CVDCILRYLC (on fuse 5 phage, fused to pIII) [CVDCILRYLC phage], with “binds”.
Same read-out and setting: then CQGMHGTPAC (on fuse 5 phage, fused to pIII) [CQGMHGTPAC phage], with “binds”; and CGQGMHRLAC (on fuse 5 phage, fused to pIII) [CGQGMHRLAC phage], with “binds”; and CRGDNAWC (on fuse 5 phage, fused to pIII) [CRGDNAWC phage], with “binds”.
Consider CRGDNVWC (on fuse 5 phage, fused to pIII) [CRGDNVWC phage], for which the binding result was “binds”.
Still for that read-out and setting: with CRGDRAWC (on fuse 5 phage, fused to pIII) [CRGDRAWC phage] the entry was “binds”.
The same measure, in the same setting: with CWRGDHVMPC (on fuse 5 phage, fused to pIII) [CWRGDHVMPC phage] the entry was “binds”.
Still for that read-out and setting: with CRGDGQHC (on fuse 5 phage, fused to pIII) [CRGDGQHC phage] the entry was “binds”; with CKWRSARDLC (on fuse 5 phage, fused to pIII) [CKWRSARDLC phage], “binds”; with CQGIDGTPAC (on fuse 5 phage, fused to pIII) [CQGIDGTPAC phage], “binds”.
On to CREQPASRSC (on fuse 5 phage, fused to pIII) [CREQPASRSC phage], for which the binding result is “binds”.
As for CGQRGDGFCL (on fuse 5 phage, fused to pIII) [CGQRGDGFCL phage], the binding result is listed as “binds”.
Take CYVNGRAWAC (on fuse 5 phage, fused to pIII) [CYVNGRAWAC phage]: the binding result was “binds”.

Values taken from patent US7067619 (LA JOLLA CANCER RESEARCH FOUNDATION, dated 2006).
